Results reported in patent US20170247475A1 (Boehringer Ingelheim, published 2017).
Read-outs that look alike come from different tables or passages of the source.

Columns and labels:
hAng2 [1] = molecular target: T1, hAng2; test: competition ELISA, blocking of hAng2 binding to hTie2
T1 construct: also called human Ang2
T1 chain: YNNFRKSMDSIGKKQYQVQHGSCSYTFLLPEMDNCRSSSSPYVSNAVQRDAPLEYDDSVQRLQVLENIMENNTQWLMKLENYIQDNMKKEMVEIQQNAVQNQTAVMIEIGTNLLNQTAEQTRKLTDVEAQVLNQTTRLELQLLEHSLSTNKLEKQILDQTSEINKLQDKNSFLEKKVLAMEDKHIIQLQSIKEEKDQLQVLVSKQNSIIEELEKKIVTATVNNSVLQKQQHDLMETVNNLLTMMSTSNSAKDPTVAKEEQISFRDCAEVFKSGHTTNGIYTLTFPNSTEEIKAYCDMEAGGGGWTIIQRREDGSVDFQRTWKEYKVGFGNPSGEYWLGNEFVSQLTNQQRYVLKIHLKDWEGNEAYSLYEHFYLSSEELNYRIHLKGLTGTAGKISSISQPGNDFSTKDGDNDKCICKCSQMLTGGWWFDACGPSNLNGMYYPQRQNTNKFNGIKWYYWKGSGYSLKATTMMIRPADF

cAng2 [2] = molecular target: T2, cAng2 (cynomolgus monkey); test: competition ELISA, blocking of cAng2 binding to cTie2
T2 construct: also called cyno Ang2

mAng2 [3] = molecular target: T3, mAng2; test: competition ELISA, blocking of mAng2 binding to mTie2
T3 construct: also called mouse Ang2
T3 chain: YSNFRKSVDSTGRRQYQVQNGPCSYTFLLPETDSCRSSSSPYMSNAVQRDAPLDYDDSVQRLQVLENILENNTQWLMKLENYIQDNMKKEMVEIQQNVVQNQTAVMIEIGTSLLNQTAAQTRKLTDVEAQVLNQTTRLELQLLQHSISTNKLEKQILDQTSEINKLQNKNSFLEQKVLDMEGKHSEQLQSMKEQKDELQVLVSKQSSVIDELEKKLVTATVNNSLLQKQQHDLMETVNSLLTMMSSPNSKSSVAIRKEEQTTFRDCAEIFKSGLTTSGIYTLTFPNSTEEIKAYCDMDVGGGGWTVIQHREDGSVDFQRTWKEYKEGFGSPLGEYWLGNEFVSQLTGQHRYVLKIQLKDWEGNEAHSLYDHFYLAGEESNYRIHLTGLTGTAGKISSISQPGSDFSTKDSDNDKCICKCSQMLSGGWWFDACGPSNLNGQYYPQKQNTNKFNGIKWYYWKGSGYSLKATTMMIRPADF

mAng2 [4] = molecular target: T3, mAng2; test: as above
cAng2 [5] = molecular target: T2, cAng2; test: competition ELISA, blocking of cAng2 binding to cTie2; remark: listed apart in the source
hAng2 [6] = molecular target: T1, hAng2; test: competition ELISA, blocking of hAng2 binding to hTie2
human VEGF-B = molecular target: T4, human VEGF-B (human, UniProt P49765-2 22-188, limits assumed); test: binding ELISA on coated VEGFB
T4 construct: also called hVEGF-B
T4 sequence (looked up): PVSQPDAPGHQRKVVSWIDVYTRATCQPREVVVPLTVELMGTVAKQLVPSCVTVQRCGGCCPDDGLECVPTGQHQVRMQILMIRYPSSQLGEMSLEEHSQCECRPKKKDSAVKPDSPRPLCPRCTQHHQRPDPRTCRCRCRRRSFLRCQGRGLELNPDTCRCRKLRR
Description: (§1) Binding to VEGFB, VEGFC, VEGFD and PIGF is assessed via a solid phase binding ELISA. In brief, VEGFB, VEGFC, VEGFD and PIGF (R&D Systems, Minneapolis, Minn., USA) are coated overnight at 4° C. at 1 μg/mL in a 96-well MaxiSorp plate (Nunc, Wiesbaden, Germany). Wells are blocked with a casein solution (1% in PBS). […] As positive controls serial dilutions of the appropriate receptors are taken along and detected with horseradish peroxidase (HRP)-conjugated goat anti-human IgG, Fc specific antibody (Jackson Immuno Research Laboratories Inc., West Grove, Pa., USA) and a subsequent enzymatic reaction in the presence of the substrate TMB (3,3′,5,5′-tetramentylbenzidine) (Pierce, Rockford, Ill., USA).

VEGF [7] = test: cell-based or functional assay
[8] = molecular target: T5, recombinant human VEGF165 (human, UniProt P15692-4 27-191); test: SPR Biacore T100, hVEGF165 on chip, Two State Reaction model
T5 construct: also called hVEGF165; rhVEGF165
Description: (§2) Samples are injected for 2 min and allowed to dissociate up to 20 min at a flow rate of 45 μI/min. In between sample injections, the chip surface is regenerated with 100 mM HCl. HBS-EP+(Hepes buffer pH7.4+EDTA) is used as running buffer. Binding curves are fitted using a Two State Reaction model by Biacore T100 Evaluation Software v2.0.1.
(§3) ^{(a)}KD = kd1/kₐ₁ * (kd2/(kd2 + kₐ₂)) ^{(b)}Curves are fitted using a Two State Reaction model by Biacore T100 Evaluation Software v2.0.1

[9] = molecular target: T5, recombinant human VEGF165; test: hVEGF165/hVEGFR2-Fc competition AlphaScreen
Description: (§4) Finally, streptavidin donor beads (20 μg/ml) are added and after 1 hour of incubation in the dark, fluorescence is measured on the Envision microplate reader.

[10] = molecular target: T5, recombinant human VEGF165; test: kd1; SPR Biacore T100, hVEGF165 on chip, Two State Reaction model
Description: as §2, §3

[11] = molecular target: T5, recombinant human VEGF165; test: VEGF165/hVEGFR1-Fc competition AlphaScreen
Description: as §4

human PIGF = molecular target: T6, human PIGF (human, UniProt P49763-2 21-149, limits assumed); test: binding ELISA on coated PIGF
T6 construct: also called hPIGF; PLGF
T6 sequence (looked up): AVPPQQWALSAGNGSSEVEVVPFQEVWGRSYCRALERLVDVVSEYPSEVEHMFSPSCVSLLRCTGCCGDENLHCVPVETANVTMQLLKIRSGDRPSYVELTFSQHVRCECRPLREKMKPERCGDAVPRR
Description: as §1

[12] = molecular target: T7, recombinant mouse VEGF164 (mouse, UniProt Q00731-2 27-190); test: binding ELISA on coated mouse VEGF164
T7 construct: biotinylated in the mVEGFR2 AlphaScreen; also called rmVEGF164; mVEGF164
T7 sequence (looked up): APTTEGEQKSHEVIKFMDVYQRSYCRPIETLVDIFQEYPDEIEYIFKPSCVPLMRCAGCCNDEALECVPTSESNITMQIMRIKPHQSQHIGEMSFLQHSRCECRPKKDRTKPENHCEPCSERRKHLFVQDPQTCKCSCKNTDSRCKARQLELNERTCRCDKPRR
Description: Cross-reactivity to mouse VEGF164 is determined using a binding ELISA. […] Wells are blocked with a casein solution (1% in PBS). […] A mouse VEGF164 reactive mAb is included as positive control.

human VEGF-D = molecular target: T8, human VEGF-D (human, UniProt O43915 93-201); test: binding ELISA on coated VEGF-D
T8 construct: also called hVEGF-D
T8 sequence (looked up): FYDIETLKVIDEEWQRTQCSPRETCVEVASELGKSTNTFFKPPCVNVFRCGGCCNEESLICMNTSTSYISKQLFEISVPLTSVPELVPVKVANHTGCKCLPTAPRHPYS
Description: as §1

[13] = molecular target: T5, recombinant human VEGF165; test: ka1; SPR Biacore T100, hVEGF165 on chip, Two State Reaction model
Description: as §2, §3

[14] = molecular target: T5, recombinant human VEGF165; test: binding ELISA, coated rhVEGF165
[15] = molecular target: T9, recombinant human VEGF121 (human, UniProt P15692-9 27-147); test: binding ELISA, coated rhVEGF121
T9 construct: also called rhVEGF121; hVEGF121
T9 sequence (looked up): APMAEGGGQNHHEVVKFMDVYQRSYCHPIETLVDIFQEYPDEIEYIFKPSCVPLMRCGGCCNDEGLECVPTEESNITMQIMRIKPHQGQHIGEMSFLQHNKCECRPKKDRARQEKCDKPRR
Description: Binding to recombinant human VEGF121 is assessed via a solid phase binding ELISA. Briefly, recombinant human VEGF121 (R&D Systems, Minneapolis, Minn., USA) is coated overnight at 4° C. at 1 μg/mL in a 96-well MaxiSorp plate (Nunc, Wiesbaden, Germany). Wells are blocked with a casein solution (1% in PBS).

human VEGF-C = molecular target: T10, human VEGF-C (human, UniProt P49767 103-227); test: binding ELISA on coated VEGFC
T10 construct: also called hVEGF-C
T10 sequence (looked up): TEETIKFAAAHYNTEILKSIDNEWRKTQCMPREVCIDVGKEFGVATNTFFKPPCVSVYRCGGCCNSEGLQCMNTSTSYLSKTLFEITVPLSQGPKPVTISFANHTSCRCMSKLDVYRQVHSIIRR

[16] = molecular target: T5, recombinant human VEGF165; test: SPR Biacore T100, Two State Reaction model; KD = kd1/ka1 * (kd2/(kd2 + ka2))
Description: as §2, §3

[17] = molecular target: T5, recombinant human VEGF165; test: VEGF165/hVEGFR1-Fc competition ELISA
[18] = molecular target: T5, recombinant human VEGF165; test: hVEGF165/hVEGFR2-Fc competition ELISA
VEGF [19] = test: cell-based or functional assay; remark: listed apart in the source

B1: ANGBII00003 (VHH)
bivalent VHH: EVQLVESGGGLVQVGDSLRLSCAASGRTFSTYLMVGWFRQAPGKEREFAAGIWSSGDTAYADSVRGRFTISRDNAKNTVYLQMNSLKTEDTAVYYCAGSYDGNYYIPGFYKDWGQGTLVTVSSGGGGSGGGSEVQLVESGGGLVQVGDSLRLSCAASGRTFSTYLMVGWFRQAPGKEREFAAGIWSSGDTAYADSVRGRFTISRDNAKNTVYLQMNSLKTEDTAVYYCAGSYDGNYYIPGFYKDWGQGTLVTVSS
notes: homodimeric anti-Ang2 VHH; also called 11B07-9gs-11B07
In the case of B1, the “IC50 (read off the curve)” value (hAng2 [1]) is reported as ~30 pM, the “IC50 (read off the curve)” value (cAng2 [2]) is reported as ~30 pM and the “IC50 (read off the curve)” value (mAng2 [3]) is reported as ~40 pM.

B2: ANGBII00004 (VHH)
bivalent VHH: EVQLVESGGGLVQAGGSLRLSCAASGFTLDDYAIGWFRQAPGKEREGVSSIRDNDGSTYYADSVKGRFTISSDNDKNTVYLQMNSLKPEDTAVYYCAAVPAGRLRFGEQWYPLYEYDAWGQGTLVTVSSGGGGSGGGSEVQLVESGGGLVQAGGSLRLSCAASGFTLDDYAIGWFRQAPGKEREGVSSIRDNDGSTYYADSVKGRFTISSDNDKNTVYLQMNSLKPEDTAVYYCAAVPAGRLRFGEQWYPLYEYDAWGQGTLVTVSS
notes: homodimeric anti-Ang2 VHH; also called 00027-9gs-00027
In the case of B2, the “IC50 (read off the curve)” value (mAng2 [4]) is reported as ~30 pM, the “IC50 (read off the curve)” value (cAng2 [5]) is reported as ~40 pM and the “IC50 (read off the curve)” value (hAng2 [6]) is reported as ~10 pM.

B3: VEGFBII010 (VHH)
chain: EVQLVESGGGLVQTGDSLRLSCEVSGRTFSSYSMGWFRQAQGKEREFVVAISKGGYKYDSVSLEGRFTISKDNAKNTVYLQINSLKPEDTAVYYCASSRAYGSSRLRLADTYEYWGQGTQVTVSSGGGGSGGGGSGGGGSGGGGSGGGGSGGGGSGGGGSEVQLVESGGGLVQTGDSLRLSCEVSGRTFSSYSMGWFRQAQGKEREFVVAISKGGYKYDSVSLEGRFTISKDNAKNTVYLQINSLKPEDTAVYYCASSRAYGSSRLRLADTYEYWGQGTQVTVSS
notes: bivalent VHH in one chain; also called VEGFBII23B04-35GS-23B04; homodimeric VEGFBII23B04
With B3 the binding result (human VEGF-B) was “no binding (tested: 5e-7 M)”, the “% inhibition, VEGF HUVEC proliferation assay” value (VEGF [7]) was 95% and the “IC50 (nM), VEGF HUVEC proliferation assay” value (VEGF [7]) was 0.22 nM. The ka2 [8] was 0.029 s⁻¹, the kd2 [8] was 0.00013 s⁻¹ and the “% inhibition” value [9] was 100%. For the same binder, the IC50 [9] was 16 pM, the koff [10] was 0.017 s⁻¹ and the “% inhibition” value [11] was 70%. The IC50 [11] was 21 pM, the binding result (human PIGF) was “no binding (tested: 5e-7 M)” and the binding result [12] was “binds”. For the same binder, the binding result (human VEGF-D) was “no binding (tested: 5e-7 M)”, the kon [13] was 450000 M⁻¹ s⁻¹ and the EC50 [14] was 428 pM. For the same binder, the EC50 [15] was 920 pM, the binding result (human VEGF-C) was “no binding (tested: 5e-7 M)” and the Kd [16] was 160 pM. For the same binder, the “% inhibition” value [17] was 67%, the IC50 [17] was 73.5 pM and the “% inhibition” value [18] was 100%. For the same binder, the IC50 [18] was 49 pM, the “% inhibition, VEGF HUVEC Erk phosphorylation assay” value (VEGF [19]) was 92% and the “IC50 (nM), VEGF HUVEC Erk phosphorylation assay” value (VEGF [19]) was 0.19 nM.
